Columns and labels:
AncSZ = assay: phosphorylation enrichment, bacterial display (enrichment ratio); higher = better substrate or ligand; peptides without Tyr show the background
EPHB1 = EPHB1 (UniProt P54762); assay: as above
EPHB2 = EPHB2 (UniProt P29323); assay: as above
FGFR1 = FGFR1 (UniProt P11362); assay: as above
FGFR3 = FGFR3 (UniProt P22607); assay: as above
Fer (mouse) = assay: as above
Fes = Fes (UniProt P07332); assay: as above
Fyn = Fyn (UniProt P06241); assay: as above
Hck = Hck (UniProt P08631); assay: as above
Jak2 = Jak2 (UniProt O60674); assay: as above
MERTK = MERTK (UniProt Q12866); assay: as above
c-Abl (mouse) = assay: as above
c-Src = assay: as above
Grb2 SH2 = Grb2 SH2 (UniProt P62993); assay: SH2 binding enrichment of the phosphorylated peptide, bacterial display (enrichment ratio); higher = better substrate or ligand; peptides without Tyr show the background
SHP2-C SH2 = assay: as above
c-Src SH2 = assay: as above
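Throughout, for SH2 binding enrichment of the phosphorylated peptide, bacterial display: peptide library displayed on the E. coli surface as eCPX fusions, selected cells deep-sequenced, score is each peptide's frequency after selection divided by its frequency in the input.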
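Throughout, for phosphorylation enrichment, bacterial display: 11-residue human phosphosite peptides and single-mutation variants displayed on the E. coli surface, counted by deep sequencing, each peptide's frequency after selection divided by its frequency in the unselected input library; frequency after pTyr selection over input frequency; kinase dosed for 20-30% of maximal phosphorylation in three min.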

Hck, sequence (P08631 whole entry, looked up): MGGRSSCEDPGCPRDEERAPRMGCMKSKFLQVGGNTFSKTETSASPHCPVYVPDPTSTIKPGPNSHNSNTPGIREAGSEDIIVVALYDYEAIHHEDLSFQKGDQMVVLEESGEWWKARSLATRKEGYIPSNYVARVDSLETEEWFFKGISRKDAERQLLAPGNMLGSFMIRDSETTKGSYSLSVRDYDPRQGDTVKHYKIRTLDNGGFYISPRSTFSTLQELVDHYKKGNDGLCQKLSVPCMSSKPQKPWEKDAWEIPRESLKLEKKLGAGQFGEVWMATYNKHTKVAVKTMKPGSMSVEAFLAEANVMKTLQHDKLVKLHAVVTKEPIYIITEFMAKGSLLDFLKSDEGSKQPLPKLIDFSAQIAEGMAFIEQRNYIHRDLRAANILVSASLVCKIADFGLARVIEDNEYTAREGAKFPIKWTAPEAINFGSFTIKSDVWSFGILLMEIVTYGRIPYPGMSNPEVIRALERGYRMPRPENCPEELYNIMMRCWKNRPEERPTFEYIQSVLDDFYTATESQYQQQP
Fyn, sequence (P06241 whole entry, looked up): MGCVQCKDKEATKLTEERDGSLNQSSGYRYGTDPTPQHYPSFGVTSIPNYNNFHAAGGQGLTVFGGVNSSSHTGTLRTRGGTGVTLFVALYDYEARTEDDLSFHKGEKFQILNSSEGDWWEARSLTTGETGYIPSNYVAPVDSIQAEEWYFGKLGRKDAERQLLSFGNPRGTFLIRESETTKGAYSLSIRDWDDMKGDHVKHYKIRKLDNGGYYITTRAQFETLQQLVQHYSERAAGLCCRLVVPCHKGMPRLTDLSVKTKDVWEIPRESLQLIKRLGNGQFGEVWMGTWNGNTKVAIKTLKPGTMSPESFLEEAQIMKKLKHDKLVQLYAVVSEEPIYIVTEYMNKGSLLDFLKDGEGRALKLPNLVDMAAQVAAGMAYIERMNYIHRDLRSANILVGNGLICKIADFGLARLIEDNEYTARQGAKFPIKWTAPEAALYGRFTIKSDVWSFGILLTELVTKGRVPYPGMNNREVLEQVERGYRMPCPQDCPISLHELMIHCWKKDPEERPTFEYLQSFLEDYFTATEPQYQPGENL
EPHB1, sequence (P54762 whole entry, looked up): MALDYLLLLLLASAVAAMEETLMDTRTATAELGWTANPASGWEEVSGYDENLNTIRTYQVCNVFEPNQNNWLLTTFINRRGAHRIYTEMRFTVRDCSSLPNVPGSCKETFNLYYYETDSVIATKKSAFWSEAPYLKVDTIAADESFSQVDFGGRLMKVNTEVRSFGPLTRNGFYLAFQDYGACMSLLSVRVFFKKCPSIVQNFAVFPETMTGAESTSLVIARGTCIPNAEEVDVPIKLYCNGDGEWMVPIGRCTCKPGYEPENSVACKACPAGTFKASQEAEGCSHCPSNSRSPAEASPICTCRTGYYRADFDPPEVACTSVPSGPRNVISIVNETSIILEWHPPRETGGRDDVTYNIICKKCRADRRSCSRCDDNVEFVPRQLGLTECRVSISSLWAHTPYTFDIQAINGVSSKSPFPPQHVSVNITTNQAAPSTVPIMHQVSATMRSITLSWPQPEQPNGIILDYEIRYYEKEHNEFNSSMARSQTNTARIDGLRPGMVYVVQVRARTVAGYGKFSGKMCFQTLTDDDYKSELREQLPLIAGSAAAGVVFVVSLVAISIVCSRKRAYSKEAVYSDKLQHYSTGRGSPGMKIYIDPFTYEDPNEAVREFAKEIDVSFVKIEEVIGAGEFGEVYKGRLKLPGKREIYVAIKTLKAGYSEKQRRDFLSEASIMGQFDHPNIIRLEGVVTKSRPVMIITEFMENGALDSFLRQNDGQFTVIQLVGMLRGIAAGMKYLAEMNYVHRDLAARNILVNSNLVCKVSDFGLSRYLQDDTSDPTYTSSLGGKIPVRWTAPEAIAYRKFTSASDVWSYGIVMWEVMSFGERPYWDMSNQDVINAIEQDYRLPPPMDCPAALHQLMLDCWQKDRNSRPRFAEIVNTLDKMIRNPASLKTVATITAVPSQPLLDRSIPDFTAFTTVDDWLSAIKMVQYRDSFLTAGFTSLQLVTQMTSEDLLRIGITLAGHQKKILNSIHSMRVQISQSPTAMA
MERTK, sequence (Q12866 whole entry, looked up): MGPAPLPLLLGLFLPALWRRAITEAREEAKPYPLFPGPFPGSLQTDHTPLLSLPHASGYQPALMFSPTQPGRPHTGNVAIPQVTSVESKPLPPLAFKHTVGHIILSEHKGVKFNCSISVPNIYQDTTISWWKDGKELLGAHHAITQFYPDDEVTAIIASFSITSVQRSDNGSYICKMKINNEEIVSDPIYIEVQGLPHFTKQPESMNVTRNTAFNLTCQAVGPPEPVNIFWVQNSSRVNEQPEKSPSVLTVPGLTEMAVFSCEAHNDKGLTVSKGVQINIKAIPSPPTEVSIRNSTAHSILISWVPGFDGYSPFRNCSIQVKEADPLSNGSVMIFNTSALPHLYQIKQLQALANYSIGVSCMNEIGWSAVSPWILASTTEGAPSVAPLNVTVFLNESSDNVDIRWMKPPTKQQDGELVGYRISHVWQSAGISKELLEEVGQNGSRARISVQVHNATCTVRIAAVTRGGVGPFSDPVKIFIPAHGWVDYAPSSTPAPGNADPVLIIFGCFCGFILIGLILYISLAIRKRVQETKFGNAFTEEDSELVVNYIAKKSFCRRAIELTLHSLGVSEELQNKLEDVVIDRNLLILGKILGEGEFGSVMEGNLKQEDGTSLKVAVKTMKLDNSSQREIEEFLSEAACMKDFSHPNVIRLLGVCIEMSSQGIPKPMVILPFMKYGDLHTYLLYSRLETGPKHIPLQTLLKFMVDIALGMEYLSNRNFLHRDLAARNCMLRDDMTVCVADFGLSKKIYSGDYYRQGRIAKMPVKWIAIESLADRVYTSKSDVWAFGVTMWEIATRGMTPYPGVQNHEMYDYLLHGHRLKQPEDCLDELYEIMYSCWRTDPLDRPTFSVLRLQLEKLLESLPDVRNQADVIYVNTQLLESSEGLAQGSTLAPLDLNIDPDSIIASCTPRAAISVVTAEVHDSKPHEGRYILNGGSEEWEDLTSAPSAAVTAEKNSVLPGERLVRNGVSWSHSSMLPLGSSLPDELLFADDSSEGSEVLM
Fes, sequence (P07332 whole entry, looked up): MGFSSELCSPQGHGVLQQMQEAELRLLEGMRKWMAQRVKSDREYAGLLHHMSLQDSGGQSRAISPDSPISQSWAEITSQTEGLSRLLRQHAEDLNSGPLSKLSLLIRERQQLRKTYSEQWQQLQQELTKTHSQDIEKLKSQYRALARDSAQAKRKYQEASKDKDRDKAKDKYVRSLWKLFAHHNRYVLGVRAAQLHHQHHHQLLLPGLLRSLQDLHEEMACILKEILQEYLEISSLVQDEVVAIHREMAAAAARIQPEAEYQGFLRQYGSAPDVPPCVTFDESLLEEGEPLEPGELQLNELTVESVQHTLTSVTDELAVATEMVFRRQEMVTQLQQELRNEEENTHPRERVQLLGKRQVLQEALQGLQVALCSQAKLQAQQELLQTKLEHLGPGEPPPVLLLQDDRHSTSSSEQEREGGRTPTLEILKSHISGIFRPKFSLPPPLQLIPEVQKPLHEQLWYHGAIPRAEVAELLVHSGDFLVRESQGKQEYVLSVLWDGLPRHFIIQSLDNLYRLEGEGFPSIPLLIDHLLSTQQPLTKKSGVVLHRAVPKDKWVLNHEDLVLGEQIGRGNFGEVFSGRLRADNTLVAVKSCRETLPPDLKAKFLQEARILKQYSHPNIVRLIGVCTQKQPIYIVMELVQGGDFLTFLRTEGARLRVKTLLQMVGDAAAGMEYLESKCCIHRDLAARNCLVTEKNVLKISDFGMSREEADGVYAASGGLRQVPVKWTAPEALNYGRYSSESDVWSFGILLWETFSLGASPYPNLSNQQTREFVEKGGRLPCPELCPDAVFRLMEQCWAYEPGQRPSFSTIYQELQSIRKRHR
FGFR3, sequence (P22607 whole entry, looked up): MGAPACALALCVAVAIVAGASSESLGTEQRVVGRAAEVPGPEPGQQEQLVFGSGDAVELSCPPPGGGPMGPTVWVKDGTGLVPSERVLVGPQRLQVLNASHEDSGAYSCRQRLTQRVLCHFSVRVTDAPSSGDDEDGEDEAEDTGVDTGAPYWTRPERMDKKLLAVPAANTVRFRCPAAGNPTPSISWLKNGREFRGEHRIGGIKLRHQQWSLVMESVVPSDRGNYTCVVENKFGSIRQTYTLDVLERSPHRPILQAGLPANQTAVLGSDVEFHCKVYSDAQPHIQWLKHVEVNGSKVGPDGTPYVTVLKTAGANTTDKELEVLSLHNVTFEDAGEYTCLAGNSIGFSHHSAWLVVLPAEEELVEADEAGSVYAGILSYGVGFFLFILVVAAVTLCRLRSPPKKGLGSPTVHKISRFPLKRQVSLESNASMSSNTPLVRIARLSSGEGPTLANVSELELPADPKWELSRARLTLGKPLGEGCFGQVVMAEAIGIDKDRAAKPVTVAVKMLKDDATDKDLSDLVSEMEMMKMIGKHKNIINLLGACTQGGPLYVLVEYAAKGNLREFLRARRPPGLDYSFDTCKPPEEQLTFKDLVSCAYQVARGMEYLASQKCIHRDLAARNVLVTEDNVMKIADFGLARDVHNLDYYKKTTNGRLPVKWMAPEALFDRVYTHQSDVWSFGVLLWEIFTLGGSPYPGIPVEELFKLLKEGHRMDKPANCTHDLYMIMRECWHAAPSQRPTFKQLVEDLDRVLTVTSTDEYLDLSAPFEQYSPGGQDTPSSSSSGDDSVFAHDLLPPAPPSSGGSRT

Sequence | SH2 binding enrichment (Grb2 SH2) | SH2 binding enrichment (SHP2-C SH2) | SH2 binding enrichment (c-Src SH2) | phosphorylation enrichment (AncSZ) | phosphorylation enrichment (EPHB1) | phosphorylation enrichment (EPHB2) | phosphorylation enrichment (FGFR1) | phosphorylation enrichment (FGFR3) | phosphorylation enrichment (Fer (mouse)) | phosphorylation enrichment (Fes) | phosphorylation enrichment (Fyn) | phosphorylation enrichment (Hck) | phosphorylation enrichment (Jak2) | phosphorylation enrichment (MERTK) | phosphorylation enrichment (c-Abl (mouse)) | phosphorylation enrichment (c-Src)
GGPAGYLWRAS [PKLR_Y38_R40W] | 0.981 | 0.729 | 0.594 | 0.683 | 0.454 | 0.439 | 0.413 | 0.505 | 0.392 | 0.941 | 0.384 | 0.371 | 0.601 | 0.392 | 0.529 | 0.344
RGYRVYYTPDS [PTPRF_Y450] | 0.707 | 1.27 | 5.05 | 1.22 | 1.24 | 1.04 | 0.784 | 0.634 | 1.11 | 1.07 | 0.979 | 1.37 | 1.93 | 3.59 | 1.3 | 0.947
DIRAQYDELAQ [KRT18_Y256_R261Q] | 0.633 | 0.687 | 7.43 | 1.08 | 0.546 | 0.574 | 0.49 | 0.753 | 0.45 | 1.06 | 0.576 | 0.574 | 0.864 | 0.582 | 0.614 | 0.473
FKDVTYLTEEK [UBE3A_Y127] | 1.11 | 0.777 | 0.429 | 1.15 | 0.618 | 0.691 | 0.524 | 0.683 | 0.423 | 1.09 | 0.747 | 0.53 | 0.959 | 0.51 | 0.726 | 0.511
KPSLKYVTFGN [GALNTL5_Y404_G401S_YF] | 0.68 | 0.697 | 0.575 | 0.736 | 0.453 | 0.453 | 0.396 | 0.569 | 0.461 | 0.75 | 0.515 | 0.488 | 0.496 | 0.435 | 0.467 | 0.504
PGVNFYFRVSA | 0.759 | 0.701 | 0.424 | 1.73 | 0.914 | 0.759 | 1.14 | 1.88 | 0.708 | 2.13 | 0.653 | 0.817 | 1.53 | 0.743 | 1.37 | 0.599
FGSGNYNDFGN [HNRNPA2B1_Y300_YF] | 0.975 | 0.408 | 0.683 | 0.941 | 1.97 | 0.544 | 0.378 | 0.505 | 0.362 | 0.995 | 0.347 | 0.4 | 0.726 | 0.363 | 0.876 | 0.419
FDDIAYIRKAL [PIK3CA_Y1021_T1025A] | 0.787 | 0.607 | 0.39 | 0.708 | 0.361 | 0.448 | 0.358 | 0.461 | 0.387 | 0.685 | 0.427 | 0.495 | 0.52 | 0.454 | 0.5 | 0.436

Second part, led by results:

SH2 binding enrichment (Grb2 SH2) | SH2 binding enrichment (SHP2-C SH2) | SH2 binding enrichment (c-Src SH2) | Sequence | phosphorylation enrichment (AncSZ) | phosphorylation enrichment (EPHB1) | phosphorylation enrichment (EPHB2) | phosphorylation enrichment (FGFR1) | phosphorylation enrichment (FGFR3) | phosphorylation enrichment (Fer (mouse)) | phosphorylation enrichment (Fes) | phosphorylation enrichment (Fyn) | phosphorylation enrichment (Hck) | phosphorylation enrichment (Jak2) | phosphorylation enrichment (MERTK) | phosphorylation enrichment (c-Abl (mouse)) | phosphorylation enrichment (c-Src)
0.746 | 0.49 | 0.413 | SLLTDDSPQLQ [OTC_Y345_Y345D] | 1.14 | 0.928 | 0.548 | 0.491 | 0.764 | 0.444 | 1.29 | 0.407 | 0.481 | 1.22 | 0.538 | 0.923 | 0.453
0.935 | 0.651 | 0.494 | ILDEAYVMAGV [ERBB2_Y772] | 1.11 | 0.439 | 0.487 | 0.622 | 0.642 | 0.448 | 0.916 | 0.555 | 0.532 | 0.832 | 0.441 | 0.577 | 0.694
0.701 | 0.556 | 0.466 | ADDSFYTVRSA [ZAP70_Y493_A495V_YF] | 0.884 | 0.439 | 0.478 | 0.444 | 0.748 | 0.489 | 0.999 | 1.21 | 1.22 | 0.829 | 0.552 | 0.734 | 1.53
0.8 | 0.652 | 1.93 | PLKYLYPNIDR [STAT1_Y668_K673R] | 1.23 | 0.579 | 0.819 | 0.606 | 0.58 | 0.773 | 1.38 | 0.313 | 0.501 | 0.859 | 0.435 | 1.09 | 0.684
0.802 | 0.667 | 0.59 | NFPGGYSGSVK [MCPH1_Y606_L602F] | 0.354 | 0.357 | 0.379 | 0.486 | 0.47 | 0.368 | 0.547 | 0.44 | 0.406 | 0.539 | 0.365 | 0.529 | 0.451
0.607 | 0.51 | 0.395 | ALTRSYIRERV [CYP2C8_Y243_K247R] | 0.768 | 0.373 | 0.457 | 0.421 | 0.423 | 0.373 | 0.536 | 0.334 | 0.493 | 0.58 | 0.391 | 0.458 | 0.451
1.03 | 0.855 | 0.585 | KSEMSCIDGEK [SORBS1_Y485_Y485C] | 0.862 | 0.491 | 0.567 | 0.522 | 0.686 | 0.44 | 1.06 | 0.431 | 0.447 | 0.658 | 0.406 | 0.793 | 0.423
1.07 | 0.721 | 0.532 | MDNQEYKDAFK [BRDT_Y331_YF] | 1.15 | 0.715 | 0.602 | 0.504 | 0.67 | 0.505 | 1.39 | 0.493 | 0.584 | 1.22 | 0.442 | 1.22 | 0.526

— the supplement of paper PMC10065799, “High-throughput profiling of sequence recognition by tyrosine kinases and SH2 domains using bacterial peptide display” (eLife, 2023)
